Experimental findings from patent US20150037829A1 (MIT, published 2015) are described below.

The series deals with the molecule itself. Put plainly: gel filtration chromatography, self-association. Here is the method: APX, fluorescent protein, or miniSOG preparations were diluted to the desired concentrations using chilled (4° C.) PBS and then allowed to incubate at room temperature for 30 min to overnight. Samples ([…]) were run on a Waters HPLC system over a Superdex 75 10/300 column (GE Healthcare) that had been pre-equilibrated in PBS, pH 7.4. Samples were run isocratically in PBS at a flow rate of 0.5 mL/min. Elution of APX was monitored at 280 nm and 405 nm (heme absorbance). Empower software (Waters) was used for analysis of elution profiles. Apparent MWs were determined against low molecular weight standards (GE). […] This estimation was applied for all proteins in FIG. 4d except wt APX, which was predominantly dimeric at 0.25 μM. The apparent MW of the monomer for wt APX was assumed to be equal to the apparent MW of mAPX at 0.25 μM.

B1: wild-type pea cytosolic ascorbate peroxidase (APX), N-terminally His6-tagged (enzyme)
chain: RGKSYPTVSPDYQKAIEKAKRKLRGFIAEKKCAPLILRLAWHSAGTFDSKTKTGGPFGTIKHQAELAHGANNGLDIAVRLLEPIKEQFPIVSYADFYQLAGVVAVEITGGPEVPFHPGREDKPEPPPEGRLPDATKGSDHLRDVFGKAMGLSDQDIVALSGGHTIGAAHKERSGFEGPWTSNPLIFDNSYFTELLTGEKDGLLQLPSDKALLTDSVFRPLVEKYAADEDVFFADYAEAHLKLSELGFAEA
modifications: heme cofactor (non-covalent)
notes: the entries describe its self-association (homodimer) in gel filtration; also called wt APX; wtAPX; not shown: N-terminal His6-tag
On to B1, for which the binding result is on record as “binds”.
